Measured values reported in paper PMC6920965, “Plant Polyphenols Inhibit Functional Amyloid and Biofilm Formation in Pseudomonas Strains by Directing Monomers to Off-Pathway Oligomers” (Biomolecules, 2019).

Tests used:
FapC-PAO1 = FapC-PAO1 (Pseudomonas aeruginosa, UniProt Q9I2F0); test: ThT fibrillation assay ([…] FapC-PAO1, […] polyphenol) and SDS-PAGE; format: biochemical
FapC (FapC-UK4) [1] = biological target: T1, FapC (FapC-UK4) (Pseudomonas fluorescens, UniProt P0DXF5); test: ThT fibrillation assay of purified FapC; supported by CD, ATR-FTIR, SEC and SAXS of oligomers; format: biochemical
T1 construct: His-tagged FapC wt, mature protein (226 residues)

FapC (FapC-UK4) [2] = biological target: T2, FapC (FapC-UK4) (Pseudomonas fluorescens, UniProt P0DXF5); test: peptide array and SDS-PAGE blot with NBT staining; supported by ThT fibrillation, SEC and SAXS; format: binding
T2 construct: His-tagged FapC wt, 226-residue mature protein without the 24-residue signal peptide
T2 sequence (P0DXF5 25-250): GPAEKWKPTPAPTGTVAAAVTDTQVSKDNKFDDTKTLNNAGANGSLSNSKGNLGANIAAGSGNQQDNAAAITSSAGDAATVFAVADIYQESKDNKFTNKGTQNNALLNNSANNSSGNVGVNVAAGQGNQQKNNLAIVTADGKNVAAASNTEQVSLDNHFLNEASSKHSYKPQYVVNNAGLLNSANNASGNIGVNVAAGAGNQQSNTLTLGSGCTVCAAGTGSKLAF

[3] = biological target: FapC-UK4 mutant lacking all three imperfect repeats (∆R1R2R3) (Pseudomonas sp. UK4); test: SAXS; freshly desalted sample without TCEP; aggregation number (Nagg) by indirect Fourier transformation
[4] = biological target: FapC-UK4 mutant lacking all three imperfect repeats (∆R1R2R3) (Pseudomonas sp. UK4); test: SAXS; oligomers formed in the presence of PGG and purified by SEC; Nagg by indirect Fourier transformation; core-shell model
[5] = biological target: FapC from Pseudomonas sp. UK4, wild type (Pseudomonas sp. UK4); test: SAXS; freshly desalted sample without TCEP; aggregation number (Nagg) by indirect Fourier transformation
[6] = biological target: FapC from Pseudomonas sp. UK4, wild type (Pseudomonas sp. UK4); test: SAXS; oligomers formed in the presence of PGG and purified by SEC; Nagg by indirect Fourier transformation; core-shell model
[7] = biological target: FapC from Pseudomonas sp. UK4, wild type (Pseudomonas sp. UK4); test: SAXS; oligomers formed in the presence of baicalein and purified by SEC; Nagg by indirect Fourier transformation; core-shell model
[8] = biological target: FapC from Pseudomonas sp. UK4, wild type (Pseudomonas sp. UK4); test: SAXS; oligomers formed in the presence of EGCG and purified by SEC; Nagg by indirect Fourier transformation; core-shell model

Chain of FapC-PAO1 (Q9I2F0 25-340): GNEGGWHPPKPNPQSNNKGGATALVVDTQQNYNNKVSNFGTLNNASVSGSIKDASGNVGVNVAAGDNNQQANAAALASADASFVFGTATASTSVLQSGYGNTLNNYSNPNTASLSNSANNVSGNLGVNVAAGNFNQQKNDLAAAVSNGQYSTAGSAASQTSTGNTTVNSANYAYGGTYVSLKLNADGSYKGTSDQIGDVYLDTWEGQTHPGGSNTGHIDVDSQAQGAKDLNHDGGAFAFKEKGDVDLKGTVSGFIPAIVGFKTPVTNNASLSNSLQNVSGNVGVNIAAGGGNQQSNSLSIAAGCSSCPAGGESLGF

Compound: O=C(OC[C@H]1O[C@@H](OC(=O)c2cc(O)c(O)c(O)c2)[C@H](OC(=O)c2cc(O)c(O)c(O)c2)[C@@H](OC(=O)c2cc(O)c(O)c(O)c2)[C@@H]1OC(=O)c1cc(O)c(O)c(O)c1)c1cc(O)c(O)c(O)c1 [PGG, penta-O-galloyl-β-D-glucose]
- ThT fibrillation assay (30 μM FapC-PAO1, 100 μM polyphenol) and SDS-PAGE (FapC-PAO1): PGG, EGCG, and baicalein keep FapC monomeric or lead to off-pathway oligomers (Figure 4B).
- IC50 (FapC (FapC-UK4) [1]): ~26 µM

Compound: O=C(O[C@@H]1Cc2c(O)cc(O)cc2O[C@@H]1c1cc(O)c(O)c(O)c1)c1cc(O)c(O)c(O)c1 [EGCG, epigallocatechin gallate]
- peptide array and SDS-PAGE blot with NBT staining; supported by ThT fibrillation (FapC (FapC-UK4) [2]): The intensity of EGCG binding varied significantly across the probed peptides (Figure 6C), showing particular affinity for regions
- ThT fibrillation assay (30 μM FapC-PAO1, 100 μM polyphenol) and SDS-PAGE (FapC-PAO1): PGG, EGCG, and baicalein keep FapC monomeric or lead to off-pathway oligomers (Figure 4B).

Compound: O=c1cc(-c2ccccc2)oc2cc(O)c(O)c(O)c12 [baicalein]
- ThT fibrillation assay (30 μM FapC-PAO1, 100 μM polyphenol) and SDS-PAGE (FapC-PAO1): PGG, EGCG, and baicalein keep FapC monomeric or lead to off-pathway oligomers (Figure 4B).

Compound: FapC-UK4 mutant lacking all three imperfect repeats (∆R1R2R3) (domain or fragment)
- stoichiometry N [3]: 2.7
- stoichiometry N [4]: 4.7

Compound: FapC from Pseudomonas sp. UK4, wild type (natural protein)
- stoichiometry N [5]: 4.4
- stoichiometry N [6]: 7.6
- stoichiometry N [7]: 6.7
- stoichiometry N [8]: 6.7
